According to paper PMC6017926, “CpG Methylation Changes G-Quadruplex Structures Derived from Gene Promoters and Interaction with VEGF and SP1”:

Columns and labels:
[1] = molecular target: GST-SP1 (UniProt P08047); test: SPR; settings: SPR VEGF165: DNA folded in 10 mM Tris-HCl, 100 mM KCl, pH 7.4, 25 °C, ELONA: DNA folded in TK (100 mM KCl) or 100 mM LiCl buffer, binding in TBS (10 mM …)
[2] = molecular target: GST-SP1 (UniProt P08047); test: ELONA; settings: 5-methylcytosine at CpG (underlining lost in text; CpG C at 5, 10, 16); SPR VEGF165: DNA folded in 10 mM Tris-HCl, 100 mM KCl, pH 7.4, 25 °C; ELONA: DNA folded in TK (100 mM KCl) or 100 mM LiCl buffer, binding in TBS (10 mM …)
[3] = molecular target: VEGF165 (UniProt P15692-4 27-191); test: SPR; 100 mM K+; SPR VEGF165: DNA folded in 10 mM Tris-HCl, 100 mM KCl, pH 7.4, 25 °C; ELONA: DNA folded in TK (100 mM KCl) or 100 mM LiCl buffer, binding in TBS (10 mM Tris-HCl, 150 mM NaCl, 5 mM KCl), 90 µM ZnCl2, pH 7.3, RT; SPR GST-SP1: captured by anti-GST on CM5, single-cycle kinetics 10-160 nM DNA, running buffer not stated; settings: chain copies: 2, label: 5' biotin for ELONA
Sequence of VEGF165 (P15692 other isoform, or with tags, fused parts or gaps): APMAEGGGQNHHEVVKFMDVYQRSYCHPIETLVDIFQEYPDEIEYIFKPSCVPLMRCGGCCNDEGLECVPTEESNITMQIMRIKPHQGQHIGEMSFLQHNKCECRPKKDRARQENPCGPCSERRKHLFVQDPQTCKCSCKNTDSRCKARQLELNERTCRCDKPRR

Sequence of GST-SP1 (P08047 whole entry): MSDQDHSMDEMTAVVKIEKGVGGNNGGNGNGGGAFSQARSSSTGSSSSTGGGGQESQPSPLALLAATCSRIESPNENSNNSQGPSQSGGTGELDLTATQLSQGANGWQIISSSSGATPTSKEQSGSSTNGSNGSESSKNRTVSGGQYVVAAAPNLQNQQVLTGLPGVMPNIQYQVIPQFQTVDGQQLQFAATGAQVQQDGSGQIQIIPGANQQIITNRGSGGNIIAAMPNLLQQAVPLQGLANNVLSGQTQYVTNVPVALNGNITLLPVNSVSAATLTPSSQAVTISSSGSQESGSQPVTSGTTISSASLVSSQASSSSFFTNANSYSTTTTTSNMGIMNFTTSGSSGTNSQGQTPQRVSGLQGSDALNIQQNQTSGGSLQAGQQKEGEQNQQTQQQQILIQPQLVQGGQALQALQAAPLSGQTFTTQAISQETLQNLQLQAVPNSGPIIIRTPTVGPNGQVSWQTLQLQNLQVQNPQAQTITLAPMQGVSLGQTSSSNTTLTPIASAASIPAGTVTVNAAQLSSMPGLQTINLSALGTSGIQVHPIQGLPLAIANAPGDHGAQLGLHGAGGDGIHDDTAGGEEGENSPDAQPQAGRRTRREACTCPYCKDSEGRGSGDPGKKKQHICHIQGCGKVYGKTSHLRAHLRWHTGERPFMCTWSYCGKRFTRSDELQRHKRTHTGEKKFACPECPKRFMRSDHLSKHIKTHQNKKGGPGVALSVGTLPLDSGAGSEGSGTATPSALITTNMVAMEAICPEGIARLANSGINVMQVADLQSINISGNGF

## CGGGCGCGGGAGGAAGGGGGCGGGAGC [BCL-2 G4 methylated]
[1]; 5-methylcytosine at CpG (underlining lost in text; CpG C at 1, 5, 7, 21)
  Kd: 28 nM

## CGGGCGCGGGAGGAAGGGGGCGGGAGC [BCL-2 G4 unmethylated]
[1]
  Kd: 12 nM

## CGGGGCGGGGCGGGGGCGGGGGCG [HRAS2 G4 methylated]
[1]; 5-methylcytosine at CpG (underlining lost in text; CpG C at 1, 6, 11, 17, 23)
  Kd: 27 nM

## CGGGGCGGGGCGGGGGCGGGGGCG [HRAS2 G4 unmethylated]
[1]
  Kd: 10 nM

## GGCGAGGAGGGGCGTGGCCGGC [c-KIT G4 methylated]
[1]; 5-methylcytosine at CpG (underlining lost in text; CpG C at 3, 13, 19)
  Kd: 11 nM

## GGCGAGGAGGGGCGTGGCCGGC [c-KIT G4 unmethylated]
[1]
  Kd: 16 nM

## GGGGCGGGCCGGGGGCGGGG [VEGF G4 methylated]
[1]; 5-methylcytosine at CpG (underlining lost in text; CpG C at 5, 10, 16)
  Kd: 11 nM
[2]
  binding signal (fold signal vs unmethylated): 1.5

## GGGGCGGGCCGGGGGCGGGG [VEGF G4 unmethylated]
[1]
  Kd: 14 nM

## TCGGGTTGCGGGCGCAGGGCACGGGCG [HRAS1 G4 methylated]
[1]; 5-methylcytosine at CpG (underlining lost in text; CpG C at 2, 9, 13, 22, 26)
  Kd: 36 nM

## TCGGGTTGCGGGCGCAGGGCACGGGCG [HRAS1 G4 unmethylated]
[1]
  Kd: 10 nM

## GGGGCGGGCCGGGGGCGGGG (structured_DNA) [VEGF G4 unmethylated]
[3]; G4, parallel in K+
  Kd: 13 ± 0.43 nM

## GGGGCGGGCCGGGGGCGGGG (structured_DNA, 5-methylcytosine at CpG (underlining lost in text; CpG C at 5, 10, 16)) [VEGF G4 methylated]
[3]; G4, altered topology
  Kd: 25 ± 5.7 nM
